These results are taken from patent publication US20210388087A1 (Chugai, published 2021).

Sequences and labels used below:
B1: H183/L072 VH D52aY (antibody, name in Kabat numbering, V domains shown)
VH: QVQLVESGGGLVQPGRSLRLSCAASGFTFSNAWMHWVRQAPGKGLEWVAQIKYKGNAYAAYYAPSVKGRFTISRDDSKNSIYLQMNSLKTEDTAVYYCHYVHYASASTVLPAFGVDAWGQGTTVTVSS
VL: DIVMTQSPLSLPVTPGEPASISCQASQELVHMNRNTYLHWYQQKPGQAPRLLIYKVSNRFPGVPDRFSGSGSGTDFTLKISRVEAEDVGVYYCAQGTSVPFTFGQGTKLEIK
B2: H183/L072 VH D101A (antibody, name in Kabat numbering, V domains shown)
VH: QVQLVESGGGLVQPGRSLRLSCAASGFTFSNAWMHWVRQAPGKGLEWVAQIKDKGNAYAAYYAPSVKGRFTISRDDSKNSIYLQMNSLKTEDTAVYYCHYVHYASASTVLPAFGVAAWGQGTTVTVSS
VL: DIVMTQSPLSLPVTPGEPASISCQASQELVHMNRNTYLHWYQQKPGQAPRLLIYKVSNRFPGVPDRFSGSGSGTDFTLKISRVEAEDVGVYYCAQGTSVPFTFGQGTKLEIK
B3: H183/L072 VH F27L (antibody, name in Kabat numbering, V domains shown)
VH: QVQLVESGGGLVQPGRSLRLSCAASGLTFSNAWMHWVRQAPGKGLEWVAQIKDKGNAYAAYYAPSVKGRFTISRDDSKNSIYLQMNSLKTEDTAVYYCHYVHYASASTVLPAFGVDAWGQGTTVTVSS
VL: DIVMTQSPLSLPVTPGEPASISCQASQELVHMNRNTYLHWYQQKPGQAPRLLIYKVSNRFPGVPDRFSGSGSGTDFTLKISRVEAEDVGVYYCAQGTSVPFTFGQGTKLEIK
B4: H183/L072 VH F27K (antibody, name in Kabat numbering, V domains shown)
VH: QVQLVESGGGLVQPGRSLRLSCAASGKTFSNAWMHWVRQAPGKGLEWVAQIKDKGNAYAAYYAPSVKGRFTISRDDSKNSIYLQMNSLKTEDTAVYYCHYVHYASASTVLPAFGVDAWGQGTTVTVSS
VL: DIVMTQSPLSLPVTPGEPASISCQASQELVHMNRNTYLHWYQQKPGQAPRLLIYKVSNRFPGVPDRFSGSGSGTDFTLKISRVEAEDVGVYYCAQGTSVPFTFGQGTKLEIK
B5: H183/L072 VH F27W (antibody, name in Kabat numbering, V domains shown)
VH: QVQLVESGGGLVQPGRSLRLSCAASGWTFSNAWMHWVRQAPGKGLEWVAQIKDKGNAYAAYYAPSVKGRFTISRDDSKNSIYLQMNSLKTEDTAVYYCHYVHYASASTVLPAFGVDAWGQGTTVTVSS
VL: DIVMTQSPLSLPVTPGEPASISCQASQELVHMNRNTYLHWYQQKPGQAPRLLIYKVSNRFPGVPDRFSGSGSGTDFTLKISRVEAEDVGVYYCAQGTSVPFTFGQGTKLEIK
B6: H183/L072 VH D101I (antibody, name in Kabat numbering, V domains shown)
VH: QVQLVESGGGLVQPGRSLRLSCAASGFTFSNAWMHWVRQAPGKGLEWVAQIKDKGNAYAAYYAPSVKGRFTISRDDSKNSIYLQMNSLKTEDTAVYYCHYVHYASASTVLPAFGVIAWGQGTTVTVSS
VL: DIVMTQSPLSLPVTPGEPASISCQASQELVHMNRNTYLHWYQQKPGQAPRLLIYKVSNRFPGVPDRFSGSGSGTDFTLKISRVEAEDVGVYYCAQGTSVPFTFGQGTKLEIK
B7: H183/L072 VH F27V (antibody, name in Kabat numbering, V domains shown)
VH: QVQLVESGGGLVQPGRSLRLSCAASGVTFSNAWMHWVRQAPGKGLEWVAQIKDKGNAYAAYYAPSVKGRFTISRDDSKNSIYLQMNSLKTEDTAVYYCHYVHYASASTVLPAFGVDAWGQGTTVTVSS
VL: DIVMTQSPLSLPVTPGEPASISCQASQELVHMNRNTYLHWYQQKPGQAPRLLIYKVSNRFPGVPDRFSGSGSGTDFTLKISRVEAEDVGVYYCAQGTSVPFTFGQGTKLEIK
B8: H183/L072 VH F27D (antibody, name in Kabat numbering, V domains shown)
VH: QVQLVESGGGLVQPGRSLRLSCAASGDTFSNAWMHWVRQAPGKGLEWVAQIKDKGNAYAAYYAPSVKGRFTISRDDSKNSIYLQMNSLKTEDTAVYYCHYVHYASASTVLPAFGVDAWGQGTTVTVSS
VL: DIVMTQSPLSLPVTPGEPASISCQASQELVHMNRNTYLHWYQQKPGQAPRLLIYKVSNRFPGVPDRFSGSGSGTDFTLKISRVEAEDVGVYYCAQGTSVPFTFGQGTKLEIK
B9: H183/L072 VH F27M (antibody, name in Kabat numbering, V domains shown)
VH: QVQLVESGGGLVQPGRSLRLSCAASGMTFSNAWMHWVRQAPGKGLEWVAQIKDKGNAYAAYYAPSVKGRFTISRDDSKNSIYLQMNSLKTEDTAVYYCHYVHYASASTVLPAFGVDAWGQGTTVTVSS
VL: DIVMTQSPLSLPVTPGEPASISCQASQELVHMNRNTYLHWYQQKPGQAPRLLIYKVSNRFPGVPDRFSGSGSGTDFTLKISRVEAEDVGVYYCAQGTSVPFTFGQGTKLEIK
B10: H183/L072 VH F27R (antibody, name in Kabat numbering, V domains shown)
VH: QVQLVESGGGLVQPGRSLRLSCAASGRTFSNAWMHWVRQAPGKGLEWVAQIKDKGNAYAAYYAPSVKGRFTISRDDSKNSIYLQMNSLKTEDTAVYYCHYVHYASASTVLPAFGVDAWGQGTTVTVSS
VL: DIVMTQSPLSLPVTPGEPASISCQASQELVHMNRNTYLHWYQQKPGQAPRLLIYKVSNRFPGVPDRFSGSGSGTDFTLKISRVEAEDVGVYYCAQGTSVPFTFGQGTKLEIK
B11: H183/L072 VH D101L (antibody, name in Kabat numbering, V domains shown)
VH: QVQLVESGGGLVQPGRSLRLSCAASGFTFSNAWMHWVRQAPGKGLEWVAQIKDKGNAYAAYYAPSVKGRFTISRDDSKNSIYLQMNSLKTEDTAVYYCHYVHYASASTVLPAFGVLAWGQGTTVTVSS
VL: DIVMTQSPLSLPVTPGEPASISCQASQELVHMNRNTYLHWYQQKPGQAPRLLIYKVSNRFPGVPDRFSGSGSGTDFTLKISRVEAEDVGVYYCAQGTSVPFTFGQGTKLEIK
B12: H183/L072 VH D101M (antibody, name in Kabat numbering, V domains shown)
VH: QVQLVESGGGLVQPGRSLRLSCAASGFTFSNAWMHWVRQAPGKGLEWVAQIKDKGNAYAAYYAPSVKGRFTISRDDSKNSIYLQMNSLKTEDTAVYYCHYVHYASASTVLPAFGVMAWGQGTTVTVSS
VL: DIVMTQSPLSLPVTPGEPASISCQASQELVHMNRNTYLHWYQQKPGQAPRLLIYKVSNRFPGVPDRFSGSGSGTDFTLKISRVEAEDVGVYYCAQGTSVPFTFGQGTKLEIK
B13: H183/L072 VH F27E (antibody, name in Kabat numbering, V domains shown)
VH: QVQLVESGGGLVQPGRSLRLSCAASGETFSNAWMHWVRQAPGKGLEWVAQIKDKGNAYAAYYAPSVKGRFTISRDDSKNSIYLQMNSLKTEDTAVYYCHYVHYASASTVLPAFGVDAWGQGTTVTVSS
VL: DIVMTQSPLSLPVTPGEPASISCQASQELVHMNRNTYLHWYQQKPGQAPRLLIYKVSNRFPGVPDRFSGSGSGTDFTLKISRVEAEDVGVYYCAQGTSVPFTFGQGTKLEIK
B14: H183/L072 VH F27N (antibody, name in Kabat numbering, V domains shown)
VH: QVQLVESGGGLVQPGRSLRLSCAASGNTFSNAWMHWVRQAPGKGLEWVAQIKDKGNAYAAYYAPSVKGRFTISRDDSKNSIYLQMNSLKTEDTAVYYCHYVHYASASTVLPAFGVDAWGQGTTVTVSS
VL: DIVMTQSPLSLPVTPGEPASISCQASQELVHMNRNTYLHWYQQKPGQAPRLLIYKVSNRFPGVPDRFSGSGSGTDFTLKISRVEAEDVGVYYCAQGTSVPFTFGQGTKLEIK
B15: H183/L072 VH F27P (antibody, name in Kabat numbering, V domains shown)
VH: QVQLVESGGGLVQPGRSLRLSCAASGPTFSNAWMHWVRQAPGKGLEWVAQIKDKGNAYAAYYAPSVKGRFTISRDDSKNSIYLQMNSLKTEDTAVYYCHYVHYASASTVLPAFGVDAWGQGTTVTVSS
VL: DIVMTQSPLSLPVTPGEPASISCQASQELVHMNRNTYLHWYQQKPGQAPRLLIYKVSNRFPGVPDRFSGSGSGTDFTLKISRVEAEDVGVYYCAQGTSVPFTFGQGTKLEIK
B16: H183/L072 VH F27G (antibody, name in Kabat numbering, V domains shown)
VH: QVQLVESGGGLVQPGRSLRLSCAASGGTFSNAWMHWVRQAPGKGLEWVAQIKDKGNAYAAYYAPSVKGRFTISRDDSKNSIYLQMNSLKTEDTAVYYCHYVHYASASTVLPAFGVDAWGQGTTVTVSS
VL: DIVMTQSPLSLPVTPGEPASISCQASQELVHMNRNTYLHWYQQKPGQAPRLLIYKVSNRFPGVPDRFSGSGSGTDFTLKISRVEAEDVGVYYCAQGTSVPFTFGQGTKLEIK
B17: H183/L072 VH F27S (antibody, name in Kabat numbering, V domains shown)
VH: QVQLVESGGGLVQPGRSLRLSCAASGSTFSNAWMHWVRQAPGKGLEWVAQIKDKGNAYAAYYAPSVKGRFTISRDDSKNSIYLQMNSLKTEDTAVYYCHYVHYASASTVLPAFGVDAWGQGTTVTVSS
VL: DIVMTQSPLSLPVTPGEPASISCQASQELVHMNRNTYLHWYQQKPGQAPRLLIYKVSNRFPGVPDRFSGSGSGTDFTLKISRVEAEDVGVYYCAQGTSVPFTFGQGTKLEIK
B18: H183/L072 VH F27Q (antibody, name in Kabat numbering, V domains shown)
VH: QVQLVESGGGLVQPGRSLRLSCAASGQTFSNAWMHWVRQAPGKGLEWVAQIKDKGNAYAAYYAPSVKGRFTISRDDSKNSIYLQMNSLKTEDTAVYYCHYVHYASASTVLPAFGVDAWGQGTTVTVSS
VL: DIVMTQSPLSLPVTPGEPASISCQASQELVHMNRNTYLHWYQQKPGQAPRLLIYKVSNRFPGVPDRFSGSGSGTDFTLKISRVEAEDVGVYYCAQGTSVPFTFGQGTKLEIK
B19: H183/L072 VH F27T (antibody, name in Kabat numbering, V domains shown)
VH: QVQLVESGGGLVQPGRSLRLSCAASGTTFSNAWMHWVRQAPGKGLEWVAQIKDKGNAYAAYYAPSVKGRFTISRDDSKNSIYLQMNSLKTEDTAVYYCHYVHYASASTVLPAFGVDAWGQGTTVTVSS
VL: DIVMTQSPLSLPVTPGEPASISCQASQELVHMNRNTYLHWYQQKPGQAPRLLIYKVSNRFPGVPDRFSGSGSGTDFTLKISRVEAEDVGVYYCAQGTSVPFTFGQGTKLEIK
B20: H183/L072 VH F27H (antibody, name in Kabat numbering, V domains shown)
VH: QVQLVESGGGLVQPGRSLRLSCAASGHTFSNAWMHWVRQAPGKGLEWVAQIKDKGNAYAAYYAPSVKGRFTISRDDSKNSIYLQMNSLKTEDTAVYYCHYVHYASASTVLPAFGVDAWGQGTTVTVSS
VL: DIVMTQSPLSLPVTPGEPASISCQASQELVHMNRNTYLHWYQQKPGQAPRLLIYKVSNRFPGVPDRFSGSGSGTDFTLKISRVEAEDVGVYYCAQGTSVPFTFGQGTKLEIK

In the test the target is T1, Human CD137 ECD (human).
T1 construct: also called 4-1BB
T1 sequence (chain, as listed by the source limits assumed): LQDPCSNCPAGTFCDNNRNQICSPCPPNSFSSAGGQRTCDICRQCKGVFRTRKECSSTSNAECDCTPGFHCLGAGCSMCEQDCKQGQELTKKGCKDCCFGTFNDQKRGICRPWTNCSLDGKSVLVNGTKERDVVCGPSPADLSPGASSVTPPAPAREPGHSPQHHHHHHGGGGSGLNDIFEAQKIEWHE
The experiment in a line: single mutant vs template dBBDu183H.
Take B1: the “fold change of affinity” value came out at 0 fold.

For the molecule B2, the “fold change of affinity” value was determined as 2 fold.

On to B3, for which the “fold change of affinity” value came to 0.5 fold.

On to B4, for which the “fold change of affinity” value is 0.2 fold.

With B5, the “fold change of affinity” value came out at 0.3 fold.

As to B6, the “fold change of affinity” value is 0 fold.

For the molecule B7, the “fold change of affinity” value came out at 0.3 fold.

For the molecule B8, the “fold change of affinity” value stood at 0.5 fold.

On to B9, for which the “fold change of affinity” value was 0.9 fold.

For the molecule B10, the “fold change of affinity” value was 0.2 fold.

Consider B11, for which the “fold change of affinity” value is 0 fold.

For B12, the “fold change of affinity” value amounted to 0 fold.

On to B13, for which the “fold change of affinity” value is 0.2 fold.

In the case of B14, the “fold change of affinity” value came out at 0.3 fold.

B15: the “fold change of affinity” value was 0.3 fold.

On to B16, for which the “fold change of affinity” value was found to be 0.4 fold.

Turning to B17, the “fold change of affinity” value was found to be 0.3 fold.

As for B18, the “fold change of affinity” value was determined as 0.2 fold.

With B19, the “fold change of affinity” value was found to be 0.3 fold.

For B20, the “fold change of affinity” value was 0.3 fold.
